Reference: article PMC2775144

Key:
[1] = molecular target: PqsD (Pseudomonas aeruginosa); assay: AUC
[2] = molecular target: PqsD (Pseudomonas aeruginosa); assay: SEC-MALS

## PqsD (enzyme)
[1]
  stoichiometry N: 2
[2]
  stoichiometry N: 2
